Experimental data: paper PMC10397247
Where two headings read alike, the source gives them in different places.

Columns and labels:
[1] = target: T1, 4H3001-AA; test: two-hybrid library CCmax; details: mean of both orientations;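 note: natural log of median RNA to DNA barcode read ratio; higher means stronger binding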
T1 chain: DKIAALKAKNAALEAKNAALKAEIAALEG

[2] = target: T2, 4H1738-AA; test: two-hybrid library CCmax; details: mean of both orientations;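 note: natural log of median RNA to DNA barcode read ratio; higher means stronger binding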
T2 chain: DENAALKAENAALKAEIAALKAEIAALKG

[3] = target: T3, 4H2219-AA; test: two-hybrid library CCmax; details: mean of both orientations;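 note: natural log of median RNA to DNA barcode read ratio; higher means stronger binding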
T3 chain: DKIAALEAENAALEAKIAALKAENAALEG

[4] = target: T4, 4H406-AA; test: two-hybrid library CCmax; details: mean of both orientations;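 note: natural log of median RNA to DNA barcode read ratio; higher means stronger binding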
T4 chain: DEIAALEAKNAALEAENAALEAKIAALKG

[5] = target: T5, 4H1639-AA; test: two-hybrid library CCmax;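 note: natural log of median RNA to DNA barcode read ratio; higher means stronger binding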
T5 chain: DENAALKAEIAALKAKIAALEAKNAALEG

[6] = target: T6, 4H249-AA; test: two-hybrid library CCmax; details: mean of both orientations;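 note: natural log of median RNA to DNA barcode read ratio; higher means stronger binding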
T6 chain: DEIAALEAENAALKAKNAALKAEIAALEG

[7] = target: T7, 4H2592-AA; test: two-hybrid library CCmax; details: mean of both orientations
T7 chain: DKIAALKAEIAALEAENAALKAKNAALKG

[8] = target: T8, 4H688-AA; test: two-hybrid library CCmax
T8 chain: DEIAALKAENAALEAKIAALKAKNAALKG

[9] = target: T9, 4H3493-AA; test: two-hybrid library CCmax; details: mean of both orientations
T9 chain: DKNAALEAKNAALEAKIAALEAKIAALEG

[10] = target: T10, 4H3340-AA; test: two-hybrid library CCmax; details: mean of both orientations
T10 chain: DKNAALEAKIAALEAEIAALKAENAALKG

[11] = target: T11, 4H2504-AA; test: two-hybrid library CCmax; details: mean of both orientations
T11 chain: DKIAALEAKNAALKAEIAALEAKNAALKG

[12] = target: T12, 4H2774-AA; test: two-hybrid library CCmax; details: mean of both orientations
T12 chain: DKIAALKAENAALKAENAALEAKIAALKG

[13] = target: T13, 4H3381-AA; test: two-hybrid library CCmax; details: mean of both orientations
T13 chain: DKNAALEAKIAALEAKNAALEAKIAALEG

[14] = target: T14, 4H376-AA; test: two-hybrid library CCmax; details: mean of both orientations
T14 chain: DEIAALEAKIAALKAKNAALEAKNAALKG

[15] = target: T15, 4H963-AA; test: two-hybrid library CCmax; details: mean of both orientations
T15 chain: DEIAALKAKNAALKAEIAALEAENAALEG

[16] = target: T16, 4H347-AA; test: two-hybrid library CCmax; details: mean of both orientations
T16 chain: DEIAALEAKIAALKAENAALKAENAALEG

[17] = target: T17, 4H2611-AA; test: two-hybrid library CCmax; details: mean of both orientations
T17 chain: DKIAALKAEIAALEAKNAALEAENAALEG

[18] = target: T18, O3-bP; test: two-hybrid library CCNG1
T18 chain: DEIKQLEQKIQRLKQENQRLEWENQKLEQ

[19] = target: T19, O13-bP; test: two-hybrid library CCNG1
T19 chain: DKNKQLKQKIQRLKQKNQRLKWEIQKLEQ

[20] = target: T20, O15-bP; test: two-hybrid library CCNG1
T20 chain: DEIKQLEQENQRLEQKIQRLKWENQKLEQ

[21] = target: T21, O1-bP; test: two-hybrid library CCNG1
T21 chain: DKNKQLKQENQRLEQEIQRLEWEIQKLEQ

[22] = target: T22, O11-bP; test: two-hybrid library CCNG1
T22 chain: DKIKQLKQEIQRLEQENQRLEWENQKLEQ

[23] = target: T23, O12-bP; test: two-hybrid library CCNG1
T23 chain: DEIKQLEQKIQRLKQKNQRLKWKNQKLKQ

[24] = target: T24, O6-bP; test: two-hybrid library CCNG1
T24 chain: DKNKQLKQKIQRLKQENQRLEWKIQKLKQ

[25] = target: T25, O16-bP; test: two-hybrid library CCNG1
T25 chain: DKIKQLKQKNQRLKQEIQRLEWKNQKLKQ

[26] = target: T26, O5-bP; test: two-hybrid library CCNG1
T26 chain: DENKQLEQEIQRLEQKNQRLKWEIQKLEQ

[27] = target: T27, O4-bP; test: two-hybrid library CCNG1
T27 chain: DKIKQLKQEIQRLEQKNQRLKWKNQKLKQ

[28] = target: T28, O14-bP; test: two-hybrid library CCNG1
T28 chain: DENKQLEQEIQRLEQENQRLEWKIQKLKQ

[29] = target: T29, O10-bP; test: two-hybrid library CCNG1
T29 chain: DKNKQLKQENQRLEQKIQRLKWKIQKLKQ

[30] = target: T30, O8-bP; test: two-hybrid library CCNG1
T30 chain: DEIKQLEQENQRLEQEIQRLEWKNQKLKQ

[31] = target: T31, O2-bP; test: two-hybrid library CCNG1
T31 chain: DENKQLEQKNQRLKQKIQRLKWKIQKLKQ

[32] = target: T32, O7-bP; test: two-hybrid library CCNG1
T32 chain: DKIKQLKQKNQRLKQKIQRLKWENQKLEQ

[33] = target: T33, O9-bP; test: two-hybrid library CCNG1
T33 chain: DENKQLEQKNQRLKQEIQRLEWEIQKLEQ

[34] = target: T34, P2SHb; test: two-hybrid library CCNG1
T34 chain: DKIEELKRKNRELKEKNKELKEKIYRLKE

[35] = target: T35, P3SHb; test: two-hybrid library CCNG1
T35 chain: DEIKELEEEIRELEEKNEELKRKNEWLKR

[36] = target: T36, P9SHb; test: two-hybrid library CCNG1
T36 chain: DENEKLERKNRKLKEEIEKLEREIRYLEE

[37] = target: T37, P4SHb; test: two-hybrid library CCNG1
T37 chain: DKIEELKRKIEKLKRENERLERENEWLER

[38] = target: T38, P7SHb; test: two-hybrid library CCNG1
T38 chain: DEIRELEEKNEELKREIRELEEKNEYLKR

[39] = target: T39, P1SHb; test: two-hybrid library CCNG1
T39 chain: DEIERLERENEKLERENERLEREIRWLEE

[40] = target: T40, P12SHb; test: two-hybrid library CCNG1
T40 chain: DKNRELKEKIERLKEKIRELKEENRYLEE

[41] = target: T41, P8SHb; test: two-hybrid library CCNG1
T41 chain: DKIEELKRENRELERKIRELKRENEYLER

[42] = target: T42, P6SHb; test: two-hybrid library CCNG1
T42 chain: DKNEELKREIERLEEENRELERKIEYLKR

[43] = target: T43, P11SHb; test: two-hybrid library CCNG1
T43 chain: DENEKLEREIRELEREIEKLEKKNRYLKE

[44] = target: T44, 4H3015-AA; test: two-hybrid library CCmax; details: mean of both orientations
T44 chain: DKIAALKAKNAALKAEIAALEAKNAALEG

[45] = target: T45, 4H1821-AA; test: two-hybrid library CCmax; details: mean of both orientations
T45 chain: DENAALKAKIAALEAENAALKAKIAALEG

[46] = target: T46, 4H2330-AA; test: two-hybrid library CCmax; details: mean of both orientations
T46 chain: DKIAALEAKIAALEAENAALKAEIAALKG

[47] = target: T47, 4H1828-AA; test: two-hybrid library CCmax; details: mean of both orientations
T47 chain: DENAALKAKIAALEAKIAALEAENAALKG

[48] = target: T48, 4H2931-AA; test: two-hybrid library CCmax; details: mean of both orientations
T48 chain: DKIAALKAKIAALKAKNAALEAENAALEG

[49] = target: T49, 4H2343-AA; test: two-hybrid library CCmax; details: mean of both orientations
T49 chain: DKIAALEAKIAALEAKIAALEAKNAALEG

[50] = target: T50, 4H1930-AA; test: two-hybrid library CCmax; details: mean of both orientations
T50 chain: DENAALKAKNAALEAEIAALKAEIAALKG

[51] = target: GCN2_T; test: two-hybrid library CCmax; details: mean of both orientations
[52] = target: T51, Core_NNNN-es_KEEE; test: two-hybrid library CCmax
T51 chain: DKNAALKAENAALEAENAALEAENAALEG

[53] = target: T52, 4H3073-AA; test: two-hybrid library CCmax; details: mean of both orientations
T52 chain: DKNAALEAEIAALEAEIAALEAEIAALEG

[54] = target: T53, 4H1765-AA; test: two-hybrid library CCmax
T53 chain: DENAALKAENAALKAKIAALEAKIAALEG

[55] = target: T54, 4H2466-AA; test: two-hybrid library CCmax; details: mean of both orientations
T54 chain: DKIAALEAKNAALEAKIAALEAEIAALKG

[56] = target: T55, 4H56-AA; test: two-hybrid library CCmax; details: mean of both orientations
T55 chain: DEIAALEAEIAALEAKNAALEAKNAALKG

[57] = target: T56, 4H2165-AA; test: two-hybrid library CCmax; details: mean of both orientations
T56 chain: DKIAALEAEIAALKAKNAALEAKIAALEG

[58] = target: T57, 4H452-AA; test: two-hybrid library CCmax; details: mean of both orientations
T57 chain: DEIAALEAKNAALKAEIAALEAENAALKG

[59] = target: T58, 4H2124-AA; test: two-hybrid library CCmax
T58 chain: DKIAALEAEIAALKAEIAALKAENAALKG

[60] = target: T59, 4H2253-AA; test: two-hybrid library CCmax; details: mean of both orientations
T59 chain: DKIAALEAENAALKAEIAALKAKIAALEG

[61] = target: T60, 4H3438-AA; test: two-hybrid library CCmax; details: mean of both orientations
T60 chain: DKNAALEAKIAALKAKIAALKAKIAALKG

[62] = target: T61, 4H_BCR; test: two-hybrid library CCmax; details: mean of both orientations
T61 chain: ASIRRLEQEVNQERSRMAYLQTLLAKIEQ

[63] = target: 4H_GCN4; test: two-hybrid library CCmax
[64] = target: T62, 4H_APH; test: two-hybrid library CCmax
T62 chain: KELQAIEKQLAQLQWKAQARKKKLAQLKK

[65] = target: T63, 4H2732-AA; test: two-hybrid library CCmax; details: mean of both orientations
T63 chain: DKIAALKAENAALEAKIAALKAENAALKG

Chain of 4H_GCN4 (chain, as listed by the source): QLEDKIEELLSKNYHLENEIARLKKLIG

Binder: DENAALKAEIAALKAKIAALEAKNAALEG [4H1639-AA]
- interaction score [1]: -2.12
- interaction score [2]: -1.64
- interaction score [3]: -1.88
- interaction score [4]: -1.63
- interaction score [5]: 1.24
- interaction score [6]: -1.52
- interaction score [7]: -1.85
- interaction score [8]: -1.18
- interaction score [9]: -1.73
- interaction score [10]: -1.63
- interaction score [11]: -1.77
- interaction score [12]: -1.35
- interaction score [13]: -1.7
- interaction score [14]: -1.37
- interaction score [15]: -2.16
- interaction score [16]: -1.41
- interaction score [17]: -1.52

Binder: DKNKQLKQENQRLEQEIQRLEWEIQKLEQ [O1-bP]
- interaction score [18]: -1.35
- interaction score [19]: -0.754
- interaction score [20]: -1.88
- interaction score [21]: -0.355
- interaction score [22]: -0.513
- interaction score [23]: -1.11
- interaction score [24]: -0.442
- interaction score [25]: -0.714
- interaction score [26]: -1.22
- interaction score [27]: -1.05
- interaction score [28]: -1.51
- interaction score [29]: -0.164
- interaction score [30]: -1.95
- interaction score [31]: 1.06
- interaction score [32]: -1.06
- interaction score [33]: 1.31

Binder: DENEKLEREIRELEREIEKLEKKNRYLKE [P11SHb]
- interaction score [34]: 0.79
- interaction score [35]: -0.138
- interaction score [36]: 0.702
- interaction score [37]: 0.998
- interaction score [38]: 0.246
- interaction score [39]: -0.267
- interaction score [40]: 1.61
- interaction score [41]: -0.421
- interaction score [42]: 1.17
- interaction score [43]: 0.241

Binder: DENAALKAENAALKAKIAALEAKIAALEG [4H1765-AA]
- interaction score [44]: -1.7
- interaction score [1]: -2.1
- interaction score [45]: -1.42
- interaction score [46]: -1.37
- interaction score [47]: -0.973
- interaction score [48]: -1.83
- interaction score [49]: -1.45
- interaction score [50]: -1.21
- interaction score [4]: -1.54
- interaction score [51]: -1.28
- interaction score [52]: -0.679
- interaction score [53]: -1.02
- interaction score [54]: 2.4
- interaction score [55]: -1.7
- interaction score [6]: -1.63
- interaction score [56]: -1.76
- interaction score [7]: -1.67
- interaction score [57]: -1.25
- interaction score [58]: -1.48
- interaction score [59]: -1.72
- interaction score [60]: -1.14
- interaction score [61]: -0.901
- interaction score [12]: -1.4
- interaction score [62]: -1.93
- interaction score [63]: -1.69
- interaction score [64]: -2.38
- interaction score [65]: -1.76
- interaction score [16]: -1.81

Binder: DKNKQLKQENQRLEQKIQRLKWKIQKLKQ [O10-bP]
- interaction score [18]: -0.676
- interaction score [19]: -0.892
- interaction score [20]: -0.788
- interaction score [22]: -1.97
- interaction score [23]: -1.28
- interaction score [24]: -1.19
- interaction score [25]: -0.76
- interaction score [26]: -0.843
- interaction score [27]: -0.826
- interaction score [28]: -0.56
- interaction score ([29]; mean of both orientations): -0.552
- interaction score [30]: -1.81
- interaction score [31]: 0.624
- interaction score [32]: -1.18
- interaction score ([33]; mean of both orientations): 0.966

Binder: DENAALEAKNAALKAKNAALKAKNAALKG [Core_NNNN-es_EKKK]
- interaction score ([52]; mean of both orientations): 1.14
